Test results from patent EP4782541A1 (Nanjing Probio Biotech Co., Ltd., dated 2026).

B1: BsAb-17 (bispecific antibody, human IgG1, lambda)
chain: EVQLVESGGGLVQPGGSLRLSCAASGRSFSSFQMGWFRQAPGKEREFVAASGWSGGPTYYWDSVIGRFTISTDNSKNTLYLQMNSLRAEDTAVYYCYEDRVLSGRHVRYWGQGTLVTVSSDKTHTCPPCPAPESTRGPSVFLFPPKPKDTLMISRTPEVTCVVVDVSHEDPEVKFNWYVDGVEVHNAKTKPREEQYNSTYRVVSVLTVLHQDWLNGKEYKCKVSNKALPAPIEKTISKAKGQPREPQVCTLPPSRDELTKNQVSLSCAVKGFYPSDIAVEWESNGQPENNYKTTPPVLDSDGSFFLVSKLTVDKSRWQQGNVFSCSVMHEALHNHYTQKSLSLSPGK
heavy: EVQLVESGGGLVQPGGSLRLSCAASGRSFSSFQMGWFRQAPGKEREFVAASGWSGGPTYYWDSVIGRFTISTDNSKNTLYLQMNSLRAEDTAVYYCYEDRVLSGRHVRYWGQGTLVTVSSGGGGSGGGGSGGGGSEVQLVESGGGLVQPGRSLRLSCAASGFTFNTYAMNWVRQAPGKGLEWVARIRSKYNNYATYYADSVKDRFTISRDDSKSIAYLQMNSLKTEDTAVYYCVRHGNFGNSYVSWFAYWGQGTLVTVSSASTKGPSVFPLAPSSKSTSGGTAALGCLVKDYFPEPVTVSWNSGALTSGVHTFPAVLQSSGLYSLSSVVTVPSSSLGTQTYICNVNHKPSNTKVDKKVEPKSCDKTHTCPPCPAPESTRGPSVFLFPPKPKDTLMISRTPEVTCVVVDVSHEDPEVKFNWYVDGVEVHNAKTKPREEQYNSTYRVVSVLTVLHQDWLNGKEYKCKVSNKALPAPIEKTISKAKGQPREPQVYTLPPCRDELTKNQVSLWCLVKGFYPSDIAVEWESNGQPENNYKTTPPVLDSDGSFFLYSKLTVDKSRWQQGNVFSCSVMHEALHNHYTQKSLSLSPGK
light: QTVVTQEPSLTVSPGGTVTLTCRSSTGAVTTSNYANWVQQKPGQAPRGLIGGTNKRAPGVPARFSGSLLGGKAALTLSGVQPEDEAEYFCALWYSNLWVFGGGTKLTVLGQPKAAPSVTLFPPSSEELQANKATLVCLISDFYPGAVTVAWKADSSPVKAGVETTTPSKQSNNKYAASSYLSLTPEQWKSHRSYSCQVTHEGSTVEKTVAPTECS
B2: BsAb-3 (bispecific antibody, human IgG1, lambda)
chain: QVQLVESGGGVVQPGGSLRLSCAASGFVLRVNTVSWYRQAPGKQRELVALITSESNEYYDDSVKGRFTISRDNAKNTIYLHMNSLKPEDTGVYFCNFITTWGQGTQVTVSSDKTHTCPPCPAPESTRGPSVFLFPPKPKDTLMISRTPEVTCVVVDVSHEDPEVKFNWYVDGVEVHNAKTKPREEQYNSTYRVVSVLTVLHQDWLNGKEYKCKVSNKALPAPIEKTISKAKGQPREPQVCTLPPSRDELTKNQVSLSCAVKGFYPSDIAVEWESNGQPENNYKTTPPVLDSDGSFFLVSKLTVDKSRWQQGNVFSCSVMHEALHNHYTQKSLSLSPGK
heavy: EVQLVESGGGLVQPGRSLRLSCAASGFTFNTYAMNWVRQAPGKGLEWVARIRSKYNNYATYYADSVKDRFTISRDDSKSIAYLQMNSLKTEDTAVYYCVRHGNFGNSYVSWFAYWGQGTLVTVSSASTKGPSVFPLAPSSKSTSGGTAALGCLVKDYFPEPVTVSWNSGALTSGVHTFPAVLQSSGLYSLSSVVTVPSSSLGTQTYICNVNHKPSNTKVDKKVEPKSCDKTHTCPPCPAPESTRGPSVFLFPPKPKDTLMISRTPEVTCVVVDVSHEDPEVKFNWYVDGVEVHNAKTKPREEQYNSTYRVVSVLTVLHQDWLNGKEYKCKVSNKALPAPIEKTISKAKGQPREPQVYTLPPCRDELTKNQVSLWCLVKGFYPSDIAVEWESNGQPENNYKTTPPVLDSDGSFFLYSKLTVDKSRWQQGNVFSCSVMHEALHNHYTQKSLSLSPGK
light: QTVVTQEPSLTVSPGGTVTLTCRSSTGAVTTSNYANWVQQKPGQAPRGLIGGTNKRAPGVPARFSGSLLGGKAALTLSGVQPEDEAEYFCALWYSNLWVFGGGTKLTVLGQPKAAPSVTLFPPSSEELQANKATLVCLISDFYPGAVTVAWKADSSPVKAGVETTTPSKQSNNKYAASSYLSLTPEQWKSHRSYSCQVTHEGSTVEKTVAPTECS
notes: also called BsAb-03
B3: BsAb-16 (bispecific antibody, human IgG1, lambda)
chain: EVQLVESGGGLVQPGGSLRLSCAASGRSFSSFQMGWFRQAPGKEREFVAASGWSGGPTYYWDSVIGRFTISTDNSKNTLYLQMNSLRAEDTAVYYCYEDRVLSGRHVRYWGQGTLVTVSSGGGGSGGGGSGGGGSEVQLVESGGGLVQPGGSLRLSCAASGRSFSSFQMGWFRQAPGKEREFVAASGWSGGPTYYWDSVIGRFTISTDNSKNTLYLQMNSLRAEDTAVYYCYEDRVLSGRHVRYWGQGTLVTVSSDKTHTCPPCPAPESTRGPSVFLFPPKPKDTLMISRTPEVTCVVVDVSHEDPEVKFNWYVDGVEVHNAKTKPREEQYNSTYRVVSVLTVLHQDWLNGKEYKCKVSNKALPAPIEKTISKAKGQPREPQVCTLPPSRDELTKNQVSLSCAVKGFYPSDIAVEWESNGQPENNYKTTPPVLDSDGSFFLVSKLTVDKSRWQQGNVFSCSVMHEALHNHYTQKSLSLSPGK
heavy: EVQLVESGGGLVQPGRSLRLSCAASGFTFNTYAMNWVRQAPGKGLEWVARIRSKYNNYATYYADSVKDRFTISRDDSKSIAYLQMNSLKTEDTAVYYCVRHGNFGNSYVSWFAYWGQGTLVTVSSASTKGPSVFPLAPSSKSTSGGTAALGCLVKDYFPEPVTVSWNSGALTSGVHTFPAVLQSSGLYSLSSVVTVPSSSLGTQTYICNVNHKPSNTKVDKKVEPKSCDKTHTCPPCPAPESTRGPSVFLFPPKPKDTLMISRTPEVTCVVVDVSHEDPEVKFNWYVDGVEVHNAKTKPREEQYNSTYRVVSVLTVLHQDWLNGKEYKCKVSNKALPAPIEKTISKAKGQPREPQVYTLPPCRDELTKNQVSLWCLVKGFYPSDIAVEWESNGQPENNYKTTPPVLDSDGSFFLYSKLTVDKSRWQQGNVFSCSVMHEALHNHYTQKSLSLSPGK
light: QTVVTQEPSLTVSPGGTVTLTCRSSTGAVTTSNYANWVQQKPGQAPRGLIGGTNKRAPGVPARFSGSLLGGKAALTLSGVQPEDEAEYFCALWYSNLWVFGGGTKLTVLGQPKAAPSVTLFPPSSEELQANKATLVCLISDFYPGAVTVAWKADSSPVKAGVETTTPSKQSNNKYAASSYLSLTPEQWKSHRSYSCQVTHEGSTVEKTVAPTECS
B4: BsAb-2 (bispecific antibody, human IgG1, lambda)
chain: EVQLVESGGGLVQPGGSLRLSCAASYFISRFYAVGWYRQAPGKQRELVARISSGGWTYYADSVKGRFTISIDNSKNTLYLQMNSLRAEDTAVYYCNARNLWGQGTLVTVSSDKTHTCPPCPAPESTRGPSVFLFPPKPKDTLMISRTPEVTCVVVDVSHEDPEVKFNWYVDGVEVHNAKTKPREEQYNSTYRVVSVLTVLHQDWLNGKEYKCKVSNKALPAPIEKTISKAKGQPREPQVCTLPPSRDELTKNQVSLSCAVKGFYPSDIAVEWESNGQPENNYKTTPPVLDSDGSFFLVSKLTVDKSRWQQGNVFSCSVMHEALHNHYTQKSLSLSPGK
heavy: EVQLVESGGGLVQPGRSLRLSCAASGFTFNTYAMNWVRQAPGKGLEWVARIRSKYNNYATYYADSVKDRFTISRDDSKSIAYLQMNSLKTEDTAVYYCVRHGNFGNSYVSWFAYWGQGTLVTVSSASTKGPSVFPLAPSSKSTSGGTAALGCLVKDYFPEPVTVSWNSGALTSGVHTFPAVLQSSGLYSLSSVVTVPSSSLGTQTYICNVNHKPSNTKVDKKVEPKSCDKTHTCPPCPAPESTRGPSVFLFPPKPKDTLMISRTPEVTCVVVDVSHEDPEVKFNWYVDGVEVHNAKTKPREEQYNSTYRVVSVLTVLHQDWLNGKEYKCKVSNKALPAPIEKTISKAKGQPREPQVYTLPPCRDELTKNQVSLWCLVKGFYPSDIAVEWESNGQPENNYKTTPPVLDSDGSFFLYSKLTVDKSRWQQGNVFSCSVMHEALHNHYTQKSLSLSPGK
light: QTVVTQEPSLTVSPGGTVTLTCRSSTGAVTTSNYANWVQQKPGQAPRGLIGGTNKRAPGVPARFSGSLLGGKAALTLSGVQPEDEAEYFCALWYSNLWVFGGGTKLTVLGQPKAAPSVTLFPPSSEELQANKATLVCLISDFYPGAVTVAWKADSSPVKAGVETTTPSKQSNNKYAASSYLSLTPEQWKSHRSYSCQVTHEGSTVEKTVAPTECS
notes: also called BsAb-02
B5: BsAb-10 (bispecific antibody, human IgG1, lambda)
chain: EVQLVESGGGLVQPGGSLRLSCAASYFISRFYAVGWYRQAPGKQRELVARISSGGWTYYADSVKGRFTISIDNSKNTLYLQMNSLRAEDTAVYYCNARNLWGQGTLVTVSSDKTHTCPPCPAPESTRGPSVFLFPPKPKDTLMISRTPEVTCVVVDVSHEDPEVKFNWYVDGVEVHNAKTKPREEQYNSTYRVVSVLTVLHQDWLNGKEYKCKVSNKALPAPIEKTISKAKGQPREPQVCTLPPSRDELTKNQVSLSCAVKGFYPSDIAVEWESNGQPENNYKTTPPVLDSDGSFFLVSKLTVDKSRWQQGNVFSCSVMHEALHNHYTQKSLSLSPGK
heavy: EVQLVESGGGLVQPGGSLRLSCAASYFISRFYAVGWYRQAPGKQRELVARISSGGWTYYADSVKGRFTISIDNSKNTLYLQMNSLRAEDTAVYYCNARNLWGQGTLVTVSSGGGGSGGGGSGGGGSEVQLVESGGGLVQPGRSLRLSCAASGFTFNTYAMNWVRQAPGKGLEWVARIRSKYNNYATYYADSVKDRFTISRDDSKSIAYLQMNSLKTEDTAVYYCVRHGNFGNSYVSWFAYWGQGTLVTVSSASTKGPSVFPLAPSSKSTSGGTAALGCLVKDYFPEPVTVSWNSGALTSGVHTFPAVLQSSGLYSLSSVVTVPSSSLGTQTYICNVNHKPSNTKVDKKVEPKSCDKTHTCPPCPAPESTRGPSVFLFPPKPKDTLMISRTPEVTCVVVDVSHEDPEVKFNWYVDGVEVHNAKTKPREEQYNSTYRVVSVLTVLHQDWLNGKEYKCKVSNKALPAPIEKTISKAKGQPREPQVYTLPPCRDELTKNQVSLWCLVKGFYPSDIAVEWESNGQPENNYKTTPPVLDSDGSFFLYSKLTVDKSRWQQGNVFSCSVMHEALHNHYTQKSLSLSPGK
light: QTVVTQEPSLTVSPGGTVTLTCRSSTGAVTTSNYANWVQQKPGQAPRGLIGGTNKRAPGVPARFSGSLLGGKAALTLSGVQPEDEAEYFCALWYSNLWVFGGGTKLTVLGQPKAAPSVTLFPPSSEELQANKATLVCLISDFYPGAVTVAWKADSSPVKAGVETTTPSKQSNNKYAASSYLSLTPEQWKSHRSYSCQVTHEGSTVEKTVAPTECS

Target: T1, human CD3 (on Jurkat cells) (human, UniProt P07766 23-207; P09693 23-182; P04234 22-171)
T1 construct: whole, on cells
Experiment: flow cytometry on Jurkat cells expressing human CD3

T1 sequence (P07766 23-207, chain 1 of 3): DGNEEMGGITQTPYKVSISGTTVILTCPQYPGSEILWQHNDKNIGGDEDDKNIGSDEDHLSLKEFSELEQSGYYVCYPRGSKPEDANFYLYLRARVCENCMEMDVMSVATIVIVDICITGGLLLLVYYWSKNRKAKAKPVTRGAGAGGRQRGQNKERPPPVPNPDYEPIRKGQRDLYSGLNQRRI
T1 sequence (P09693 23-182, chain 2 of 3): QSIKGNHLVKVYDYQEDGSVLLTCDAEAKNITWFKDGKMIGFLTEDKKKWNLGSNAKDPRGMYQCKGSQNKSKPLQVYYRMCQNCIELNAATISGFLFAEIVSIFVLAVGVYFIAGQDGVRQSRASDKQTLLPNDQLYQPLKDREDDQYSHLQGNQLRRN
T1 sequence (P04234 22-171, chain 3 of 3): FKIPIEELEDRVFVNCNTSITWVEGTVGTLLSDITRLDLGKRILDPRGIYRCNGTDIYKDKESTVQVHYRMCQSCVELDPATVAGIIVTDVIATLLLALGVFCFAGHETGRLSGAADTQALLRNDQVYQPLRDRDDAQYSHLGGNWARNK

Point of comparison: B5, EC50 2.84 nM. Against it:
- B1 — within 1.5-fold, 4.02 nM
- B2 — 2.3-fold higher, 6.66 nM
- B3 — 6.1-fold lower, 0.469 nM
- B4 — 8.6-fold lower, 0.329 nM
